From patent US20200165325A1
Where two headings read alike, the source gives them in different places.

What was measured:
[1] = biological target: Env (gp120) of HIV-1 strain CAP210.2.00.E8 (HIV-1)
[2] = biological target: Env (gp120) of HIV-1 strain SC422661.8 (HIV-1)
[3] = biological target: Env (gp120) of HIV-1 strain CAP45.2.00.G3 (HIV-1)
[4] = biological target: Env (gp120) of HIV-1 strain TRO.11 (HIV-1)
[5] = biological target: Env (gp120) of HIV-1 strain AC10.0.29 (HIV-1)
[6] = biological target: Env (gp120) of HIV-1 strain 6811.v7.c18 (HIV-1)
[7] = biological target: Env (gp120) of HIV-1 strain 928-28 (HIV-1)
[8] = biological target: Env (gp120) of HIV-1 strain P0402_c2_11 (HIV-1)
[9] = biological target: Env (gp120) of HIV-1 strain R1166.c01 (HIV-1)
[10] = biological target: Env (gp120) of HIV-1 strain CNE17 (HIV-1)
[11] = biological target: Env (gp120) of HIV-1 strain T278-50 (HIV-1)
[12] = biological target: Env (gp120) of HIV-1 strain Du172.17 (HIV-1)
[13] = biological target: Env (gp120) of HIV-1 strain R2184.c04 (HIV-1)
[14] = biological target: Env (gp120) of HIV-1 strain ZM247v1(Rev-) (HIV-1)
[15] = biological target: Env (gp120) of HIV-1 strain WEAU_d15_410_787 (HIV-1)
[16] = biological target: Env (gp120) of HIV-1 strain CNE21 (HIV-1)
[17] = biological target: Env (gp120) of HIV-1 strain 211-9 (HIV-1)
[18] = biological target: Env (gp120) of HIV-1 strain QH0692.42 (HIV-1)
[19] = biological target: Env (gp120) of HIV-1 strain Du422.1 (HIV-1)
[20] = biological target: Env (gp120) of HIV-1 strain C3347.c11 (HIV-1)
[21] = biological target: Env (gp120) of HIV-1 strain P1981_C5_3 (HIV-1)
[22] = biological target: Env (gp120) of HIV-1 strain 231966.c02 (HIV-1)
[23] = biological target: Env (gp120) of HIV-1 strain CNE30 (HIV-1)
[24] = biological target: Env (gp120) of HIV-1 strain T251-18 (HIV-1)
[25] = biological target: Env (gp120) of HIV-1 strain 231965.c01 (HIV-1)
[26] = biological target: Env (gp120) of HIV-1 strain T257-31 (HIV-1)
[27] = biological target: Env (gp120) of HIV-1 strain 1056_10_TA11_1826 (HIV-1)
[28] = biological target: Env (gp120) of HIV-1 strain CNE53 (HIV-1)
[29] = biological target: Env (gp120) of HIV-1 strain 3103.v3.c10 (HIV-1)
[30] = biological target: Env (gp120) of HIV-1 strain 62357_14_D3_4589 (HIV-1)
[31] = biological target: Env (gp120) of HIV-1 strain 3016.v5.c45 (HIV-1)
[32] = biological target: Env (gp120) of HIV-1 strain Q259.d2.17 (HIV-1)
[33] = biological target: Env (gp120) of HIV-1 strain ZM233M.PB6 (HIV-1)
[34] = biological target: Env (gp120) of HIV-1 strain ZM109F.PB4 (HIV-1)
[35] = biological target: Env (gp120) of HIV-1 strain HIV-16845-2.22 (HIV-1)
[36] = biological target: Env (gp120) of HIV-1 strain ZM249M.PL1 (HIV-1)
[37] = biological target: Env (gp120) of HIV-1 strain Q769.d22 (HIV-1)
[38] = biological target: Env (gp120) of HIV-1 strain THRO4156.18 (HIV-1)
[39] = biological target: Env (gp120) of HIV-1 strain Ce703010054_2A2 (HIV-1)
[40] = biological target: Env (gp120) of HIV-1 strain CNE58 (HIV-1)
[41] = biological target: Env (gp120) of HIV-1 strain 1006_11_C3_1601 (HIV-1)
[42] = biological target: Env (gp120) of HIV-1 strain X2131_C1_B5 (HIV-1)
[43] = biological target: Env (gp120) of HIV-1 strain 3415.v1.c1 (HIV-1)
[44] = biological target: Env (gp120) of HIV-1 strain AC10.0.29 (HIV-1); remark: listed apart in the source
[45] = biological target: Env (gp120) of HIV-1 strain 0815.v3.c3 (HIV-1)
[46] = biological target: Env (gp120) of HIV-1 strain REJO4541.67 (HIV-1)
[47] = biological target: Env (gp120) of HIV-1 strain Q842.d12 (HIV-1)
[48] = biological target: Env (gp120) of HIV-1 strain 1054_07_TC4_1499 (HIV-1)
[49] = biological target: Env (gp120) of HIV-1 strain 3301.v1.c24 (HIV-1)
[50] = biological target: Env (gp120) of HIV-1 strain WITO4160.33 (HIV-1)

NIH45-46^G54Y IgG (antibody)
neutralization IC50 [1]: > 50 µg/mL | neutralization IC50 [2]: 0.06 µg/mL | neutralization IC50 [3]: 45 µg/mL | neutralization IC50 [4]: 0.1 µg/mL | neutralization IC50 [5]: 0.4 µg/mL | neutralization IC50 [6]: 0.011 µg/mL | neutralization IC50 [7]: 0.12 µg/mL | neutralization IC50 [8]: 0.012 µg/mL | neutralization IC50 [9]: 0.24 µg/mL | neutralization IC50 [10]: 0.073 µg/mL | neutralization IC50 [11]: > 50 µg/mL | neutralization IC50 [12]: > 50 µg/mL | neutralization IC50 [13]: 0.015 µg/mL | neutralization IC50 [14]: 0.42 µg/mL | neutralization IC50 [15]: 0.002 µg/mL | neutralization IC50 [16]: 0.07 µg/mL | neutralization IC50 [17]: > 50 µg/mL | neutralization IC50 [18]: 0.52 µg/mL | neutralization IC50 [19]: > 50 µg/mL | neutralization IC50 [20]: 0.011 µg/mL | neutralization IC50 [21]: 0.04 µg/mL | neutralization IC50 [22]: 0.06 µg/mL | neutralization IC50 [23]: 0.099 µg/mL | neutralization IC50 [24]: 0.35 µg/mL | neutralization IC50 [25]: 0.025 µg/mL | neutralization IC50 [26]: 0.18 µg/mL | neutralization IC50 [27]: 0.044 µg/mL | neutralization IC50 [28]: 0.006 µg/mL | neutralization IC50 [29]: 0.3 µg/mL | neutralization IC50 [30]: 0.03 µg/mL | neutralization IC50 [31]: 17.9 µg/mL | neutralization IC50 [32]: 0.009 µg/mL | neutralization IC50 [33]: 0.16 µg/mL | neutralization IC50 [34]: 0.026 µg/mL | neutralization IC50 [35]: 0.59 µg/mL | neutralization IC50 [36]: 0.003 µg/mL | neutralization IC50 [37]: 0.007 µg/mL | neutralization IC50 [38]: 0.66 µg/mL | neutralization IC50 [39]: 0.022 µg/mL | neutralization IC50 [40]: 0.04 µg/mL | neutralization IC50 [41]: 0.005 µg/mL | neutralization IC50 [42]: 0.1 µg/mL | neutralization IC50 [43]: < 0.001 µg/mL | neutralization IC50 [44]: 0.19 µg/mL | neutralization IC50 [45]: < 0.001 µg/mL | neutralization IC50 [46]: 0.007 µg/mL | neutralization IC50 [47]: 0.015 µg/mL | neutralization IC50 [48]: 0.064 µg/mL | neutralization IC50 [49]: 0.003 µg/mL | neutralization IC50 [50]: 0.03 µg/mL
